# Experimental data taken from patent US20120183570A1 (WASHINGTON STATE UNIVERSITY, published 2012).
# T1: Ovalbumin (UniProt P01012 2-386)
# T1 construct: also called ovalbumin (negative control)
# T1 sequence: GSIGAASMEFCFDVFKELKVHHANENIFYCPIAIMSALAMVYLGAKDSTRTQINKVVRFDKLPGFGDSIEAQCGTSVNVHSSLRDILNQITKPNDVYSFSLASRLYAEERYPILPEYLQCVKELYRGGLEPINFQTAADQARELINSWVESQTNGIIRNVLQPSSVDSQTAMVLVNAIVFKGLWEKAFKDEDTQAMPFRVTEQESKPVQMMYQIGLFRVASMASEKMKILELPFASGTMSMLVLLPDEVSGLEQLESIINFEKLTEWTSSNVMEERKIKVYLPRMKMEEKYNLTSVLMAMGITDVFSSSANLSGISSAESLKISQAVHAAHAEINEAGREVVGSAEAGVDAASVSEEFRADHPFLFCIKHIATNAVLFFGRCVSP
# B1: FlpA-GST (aa35-410) (other)
# chain: PAVNESLPKVESLKSLSDMSNIAFEWEPLYNENIKGFYLYRSSDENPDFKLVGTIKDKFQTHYVDTKLEPGTKYRYMMKSFNEQGQISEDGKVIEVSTAPRLEAVPFVQAVTNLPNRIKLIWRPHPDFRVDSYIIERTKGDDKEFKKIAEVKNRLNAEYIDSDLKPNENSSYRIIAVSFNGIKSGSSQVVSSTSKALPPQVEHLSASTDGSSKIILTWDAPTYEDFSYYKVYSTSSSFLPFSVLAKTDKNSYEDIVEGAGKSKYYKVTMVDKDGLESPMPKDGVEGKTLGNPLAPSIILAQSTSEGINLEWSDNDTRAVEYEVRRYGGEQNAVFKGIKEKRLKDVKALPGVEYSYEVIAIDSAGLRSEPSSKVKAA
# notes: also called full-length FlpA-GST; FlpA full-length; not shown: glutathione S-transferase (GST) tag of vector pGEX-5x-1, N-terminal
# B2: CadF peptide FRLS- (aa118-133) (peptide)
# peptide: YDNKSGGFGHYGAGVK
# notes: Synthetic negative control peptide; also called CadF FRLS^-
# B3: FlpA-D3-GST (aa232-410) (other)
# chain: PPQVEHLSASTDGSSKIILTWDAPTYEDFSYYKVYSTSSSFLPFSVLAKTDKNSYEDIVEGAGKSKYYKVTMVDKDGLESPMPKDGVEGKTLGNPLAPSIILAQSTSEGINLEWSDNDTRAVEYEVRRYGGEQNAVFKGIKEKRLKDVKALPGVEYSYEVIAIDSAGLRSEPSSKVKAA
# notes: not shown: glutathione S-transferase (GST) tag of vector pGEX-5x-1, N-terminal
# B4: FlpA peptide P5 (D195-V224) (peptide)
# peptide: DSDLKPNENSSYRIIAVSFNGIKSGSSQVV
# notes: Synthetic 30mer of FlpA-D2; Used as a negative control in later ELISAs
# B5: FlpA-D2-GST (aa135-226) (other)
# chain: RLEAVPFVQAVTNLPNRIKLIWRPHPDFRVDSYIIERTKGDDKEFKKIAEVKNRLNAEYIDSDLKPNENSSYRIIAVSFNGIKSGSSQVVSS
# notes: also called FlpA domain 2; not shown: glutathione S-transferase (GST) tag of vector pGEX-5x-1, N-terminal
# B6: FlpA-D1-GST (aa35-132) (other)
# chain: PAVNESLPKVESLKSLSDMSNIAFEWEPLYNENIKGFYLYRSSDENPDFKLVGTIKDKFQTHYVDTKLEPGTKYRYMMKSFNEQGQISEDGKVIEVST
# notes: as for B3
# Tests used:
# [1] = target: Bovine serum albumin (BSA) (bovine, UniProt P02769 25-607); experiment: ELISA on BSA-coated wells, anti-GST detection
# Sequence of Bovine serum albumin (BSA) (P02769 25-607 limits assumed): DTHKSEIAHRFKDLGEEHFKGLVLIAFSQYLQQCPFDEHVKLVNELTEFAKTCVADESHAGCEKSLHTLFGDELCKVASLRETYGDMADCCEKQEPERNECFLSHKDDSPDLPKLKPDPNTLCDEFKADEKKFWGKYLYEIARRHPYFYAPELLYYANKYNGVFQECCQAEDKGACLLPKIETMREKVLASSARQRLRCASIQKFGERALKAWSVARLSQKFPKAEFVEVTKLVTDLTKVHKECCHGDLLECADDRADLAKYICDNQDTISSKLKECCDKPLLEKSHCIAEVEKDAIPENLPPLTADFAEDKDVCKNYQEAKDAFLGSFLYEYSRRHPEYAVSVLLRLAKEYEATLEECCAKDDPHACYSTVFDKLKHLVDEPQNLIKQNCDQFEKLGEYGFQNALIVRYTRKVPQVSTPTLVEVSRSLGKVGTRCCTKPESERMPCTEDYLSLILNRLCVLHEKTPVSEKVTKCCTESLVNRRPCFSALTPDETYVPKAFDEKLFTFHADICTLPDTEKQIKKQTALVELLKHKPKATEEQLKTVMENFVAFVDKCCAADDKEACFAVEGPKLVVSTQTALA
# [2] = target: T2, Fn N-terminal domain (NTD), 30 kDa fragment (human, UniProt P02751 32-290); experiment: ELISA on NTD-coated wells, anti-GST detection
# T2 construct: domain: N-terminal domain (NTD), FN1 1-5; also called 30 kDa NTD; 30-kDa proteolytic fragment from human Fn
# T2 sequence (P02751 32-290 limits assumed): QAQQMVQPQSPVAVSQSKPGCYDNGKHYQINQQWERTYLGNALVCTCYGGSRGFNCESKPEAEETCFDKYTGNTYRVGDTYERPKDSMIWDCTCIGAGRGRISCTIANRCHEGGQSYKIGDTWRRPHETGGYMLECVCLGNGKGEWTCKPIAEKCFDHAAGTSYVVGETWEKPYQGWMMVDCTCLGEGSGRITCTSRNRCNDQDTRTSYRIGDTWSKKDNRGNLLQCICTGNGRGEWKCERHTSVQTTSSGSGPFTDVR
# Ovalbumin = target: T1, Ovalbumin; experiment: ELISA on ovalbumin-coated wells, anti-GST detection
# [3] = target: T3, Human plasma fibronectin (Fn) (human, UniProt P02751-9 32-2240, limits assumed); experiment: ELISA, Fn on peptide-coated wells
# T3 construct: It is treated as the same molecule; also called full-length Fn
# T3 sequence (P02751 other isoform, or with tags, fused parts or gaps limits assumed): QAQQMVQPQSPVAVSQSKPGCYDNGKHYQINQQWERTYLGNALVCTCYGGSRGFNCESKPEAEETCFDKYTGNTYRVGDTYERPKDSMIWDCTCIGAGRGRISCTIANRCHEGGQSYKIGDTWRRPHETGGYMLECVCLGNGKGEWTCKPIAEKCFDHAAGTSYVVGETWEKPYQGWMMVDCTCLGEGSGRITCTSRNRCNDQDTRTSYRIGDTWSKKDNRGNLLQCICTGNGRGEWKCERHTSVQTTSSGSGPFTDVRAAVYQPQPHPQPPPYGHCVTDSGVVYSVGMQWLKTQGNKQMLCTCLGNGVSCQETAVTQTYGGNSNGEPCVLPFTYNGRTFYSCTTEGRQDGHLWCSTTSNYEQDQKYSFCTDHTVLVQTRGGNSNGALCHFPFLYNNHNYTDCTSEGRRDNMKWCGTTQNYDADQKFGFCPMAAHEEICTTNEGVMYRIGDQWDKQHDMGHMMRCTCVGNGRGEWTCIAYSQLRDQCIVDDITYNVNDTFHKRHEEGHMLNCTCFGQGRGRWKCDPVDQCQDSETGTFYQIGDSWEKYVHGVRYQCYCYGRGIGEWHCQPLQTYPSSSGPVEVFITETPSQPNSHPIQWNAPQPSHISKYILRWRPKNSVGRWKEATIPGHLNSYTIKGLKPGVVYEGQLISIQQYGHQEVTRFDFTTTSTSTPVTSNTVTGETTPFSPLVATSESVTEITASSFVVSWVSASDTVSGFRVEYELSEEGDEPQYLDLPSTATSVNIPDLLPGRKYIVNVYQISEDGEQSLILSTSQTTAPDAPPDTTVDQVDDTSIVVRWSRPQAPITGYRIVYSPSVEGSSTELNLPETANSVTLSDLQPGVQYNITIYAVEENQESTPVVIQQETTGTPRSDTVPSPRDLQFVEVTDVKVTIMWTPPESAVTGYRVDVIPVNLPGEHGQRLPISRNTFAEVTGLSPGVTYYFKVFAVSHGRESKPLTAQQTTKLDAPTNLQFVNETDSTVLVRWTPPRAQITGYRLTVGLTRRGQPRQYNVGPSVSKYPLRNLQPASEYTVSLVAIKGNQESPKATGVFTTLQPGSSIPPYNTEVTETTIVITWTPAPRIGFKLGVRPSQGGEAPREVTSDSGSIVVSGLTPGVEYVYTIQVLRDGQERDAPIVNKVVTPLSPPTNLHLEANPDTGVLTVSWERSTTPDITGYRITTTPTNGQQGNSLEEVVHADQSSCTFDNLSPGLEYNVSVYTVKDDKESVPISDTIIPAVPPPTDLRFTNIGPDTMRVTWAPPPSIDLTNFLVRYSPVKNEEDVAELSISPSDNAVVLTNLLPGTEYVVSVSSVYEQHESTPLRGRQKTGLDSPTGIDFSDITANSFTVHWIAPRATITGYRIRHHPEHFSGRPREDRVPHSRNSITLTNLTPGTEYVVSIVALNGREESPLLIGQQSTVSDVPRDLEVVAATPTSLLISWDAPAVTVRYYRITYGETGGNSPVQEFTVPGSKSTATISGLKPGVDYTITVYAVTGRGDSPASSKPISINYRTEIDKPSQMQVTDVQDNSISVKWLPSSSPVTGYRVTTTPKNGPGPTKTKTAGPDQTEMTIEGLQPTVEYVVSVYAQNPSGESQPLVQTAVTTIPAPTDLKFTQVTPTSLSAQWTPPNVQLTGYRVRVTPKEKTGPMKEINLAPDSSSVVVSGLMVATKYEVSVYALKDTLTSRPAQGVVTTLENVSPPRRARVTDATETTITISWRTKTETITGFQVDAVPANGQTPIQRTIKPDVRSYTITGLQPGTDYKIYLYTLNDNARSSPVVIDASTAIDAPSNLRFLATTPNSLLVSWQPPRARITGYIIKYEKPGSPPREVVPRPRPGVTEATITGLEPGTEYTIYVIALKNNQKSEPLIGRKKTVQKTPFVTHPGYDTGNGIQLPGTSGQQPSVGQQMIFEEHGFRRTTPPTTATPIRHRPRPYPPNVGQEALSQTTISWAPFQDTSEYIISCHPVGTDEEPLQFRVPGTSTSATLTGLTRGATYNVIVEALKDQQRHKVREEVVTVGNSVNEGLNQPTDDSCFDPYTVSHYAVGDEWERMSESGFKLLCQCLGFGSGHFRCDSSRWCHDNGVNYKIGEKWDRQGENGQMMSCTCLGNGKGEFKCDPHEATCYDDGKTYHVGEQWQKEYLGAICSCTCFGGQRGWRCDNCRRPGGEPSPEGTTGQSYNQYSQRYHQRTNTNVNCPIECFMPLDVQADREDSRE
# [4] = target: T3, Human plasma fibronectin (Fn); experiment: ELISAs with GST domain fusions and Fn
# [5] = target: T4, Fn gelatin-binding domain (GBD), 40 kDa fragment (human, UniProt P02751 291-630); experiment: ELISA on GBD-coated wells, anti-GST detection
# T4 construct: also called Fn-GBD
# T4 sequence (P02751 291-630 limits assumed): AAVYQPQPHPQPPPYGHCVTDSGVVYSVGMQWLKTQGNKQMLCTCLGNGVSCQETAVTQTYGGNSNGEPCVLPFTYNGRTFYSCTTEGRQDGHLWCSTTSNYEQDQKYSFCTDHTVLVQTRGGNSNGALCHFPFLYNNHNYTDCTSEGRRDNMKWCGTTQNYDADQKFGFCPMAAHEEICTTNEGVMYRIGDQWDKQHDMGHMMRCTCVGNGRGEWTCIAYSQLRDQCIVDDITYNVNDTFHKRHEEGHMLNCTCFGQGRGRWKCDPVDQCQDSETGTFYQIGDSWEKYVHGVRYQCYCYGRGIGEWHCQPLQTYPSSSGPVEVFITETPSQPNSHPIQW
# [6] = target: T4, Fn gelatin-binding domain (GBD), 40 kDa …; experiment: ELISA, GST fusion on GBD-coated wells (FIG. 22)
binder,measurement,setting,value
B1,binding result,[1],no binding
same,binding result,[2],no binding (tested: up to 1000 nM)
same,binding result,Ovalbumin,no binding (tested: up to 1000 nM)
B2,binding result,[3],no binding
B3,binding result,[4],no binding
same,binding result,[5],no binding (tested: up to 1000 nM)
KKIAEVKNRLNAEYIDSDLKPNENSSYRII (Synthetic 30mer of FlpA-D2) [FlpA peptide P4 (K180-I209)],binding result,[3],no binding
B4,binding result,[3],no binding
FVQAVTNLPNRIKLIWR (Synthetic peptide) [FlpA peptide P7 (F141-R157)],binding result,[3],no binding
DSYIIERTKGDDKEFKKIAEVKNRLNAEYI (Synthetic 30mer of FlpA-D2) [FlpA peptide P3 (D165-I194)],binding result,[3],no binding (tested: Fn up to 20 µg/ml)
B5,binding result,[2],no binding (tested: up to 1000 nM)
same,binding result,[6],binds
same,binding result,Ovalbumin,no binding (tested: up to 1000 nM)
B6,binding result,[4],no binding
same,binding result,[5],no binding (tested: up to 1000 nM)
